Data on 49 sequences can be found in the Immune Epitope Database (IEDB).

The target of one test is HLA-B*08:01. The test can be described thus: IEDB peptide-MHC binding, purified MHC/competitive/radioactivity; filed as Kd, often an IC50 or EC50 that approximates it; ≥ and ≤ were set here for values at or beyond the usual limits of such assays.
A further test has as its target HLA-B*15:01. Described as above.
The target of the next test is HLA-B*07:02. The test is described as above.
Test [1] deals with HLA-A*24:02. The test can be described thus: IEDB peptide-MHC binding, purified MHC/competitive/fluorescence; ≥ and ≤ were set here for values at or beyond the usual limits of such assays.
The next test deals with HLA-B*44:02. The test can be described thus: IEDB peptide-MHC binding, purified MHC/competitive/radioactivity; filed as Kd, often an IC50 or EC50 that approximates it; ≥ and ≤ were set here for values at or beyond the usual limits of such assays.
Another test addresses HLA-B*44:03. The test is described as above.
For a further test, the target named is HLA-A*02:01. The test can be described thus: IEDB peptide-MHC binding, purified MHC/competitive/fluorescence; ≥ and ≤ were set here for values at or beyond the usual limits of such assays.
In test [2] the target is HLA-A*24:02. The test can be described thus: IEDB peptide-MHC binding, purified MHC/competitive/radioactivity; filed as Kd, often an IC50 or EC50 that approximates it; ≥ and ≤ were set here for values at or beyond the usual limits of such assays. The settings on record: source organism: Dengue virus 2 Jamaica/1409/1983.
Test [3] has as its target HLA-A*26:01. Described as above.
The next test has as its target HLA-A*30:02. The description is as above.
The next test deals with HLA-A*01:01. The description is as above. The settings on record: source organism: Dengue virus 4 Philippines/H241/1956.
Another test concerns the target HLA-A*02:06. Described as above. The settings on record: source organism: Dengue virus 2 Jamaica/1409/1983.
For a further test, the target named is HLA-B*39:01. Briefly: IEDB peptide-MHC binding, purified MHC/competitive/fluorescence; filed as Kd, often an IC50 or EC50 that approximates it; ≥ and ≤ were set here for values at or beyond the usual limits of such assays. The settings on record: source organism: Bacillus anthracis str. A2012.
Test [4] addresses HLA-A*26:01. Briefly: IEDB peptide-MHC binding, purified MHC/direct/fluorescence; filed as Kd, often an IC50 or EC50 that approximates it; ≥ and ≤ were set here for values at or beyond the usual limits of such assays. The note with it: source organism: Mycobacterium tuberculosis variant bovis.
Where [5] appears, read: source organism: Vaccinia virus WR.
Where [6] appears, read: source organism: Dengue virus 1 Brazil/97-11/1997.
[7] abbreviates: source organism: Zaire ebolavirus.
[8] abbreviates: source organism: Dengue virus 4 Dominica/814669/1981.
The mark [9] stands for this setting: source organism: Vaccinia virus Copenhagen.
[10] abbreviates: source organism: Dengue virus 2 Jamaica/1409/1983.
Where [11] appears, read: source organism: Dengue virus 3 Martinique/1243/1999.
The mark [12] stands for this setting: source organism: Dengue virus 4 Philippines/H241/1956.
[13] abbreviates: source organism: Sudan ebolavirus.

For the sequence RNIARHLAL, in the test with HLA-B*08:01 (setting [5]), the Kd stood at 3.24 nM.

With WQQVPFCSH, the dissociation constant Kd with HLA-B*15:01 (setting [6]) stood at 102 nM.

On to RPMFAVGLL, for which the Kd with HLA-B*07:02 (setting [6]) amounted to 5.06 nM.

SLIYLCTFM: the Kd with HLA-B*15:01 (setting [5]) was found to be 4.45 nM.

SMKYLMLLF: the Kd with HLA-B*15:01 (setting [5]) came to 3.84 nM.

For the sequence SLKIMIQSM, the Kd with HLA-B*08:01 (setting [5]) turned out to be 2.48 nM.

In the test with HLA-A*24:02 [1] (source organism: Vaccinia virus), VRSETKQKF displayed an IC50 of 1820 nM.

In the test with HLA-A*24:02 [1] (setting [7]), SFEEMYRHI came in with an IC50 of 6110 nM.

For IESEKNETW, the figures for the Kd with HLA-B*44:02 (setting [6]) and with HLA-B*44:03 (setting [6]) were 87 nM and 279 nM, respectively.

In the test with HLA-A*24:02 [1] (source organism: Variola virus), ERPVILSLP showed an IC50 of 18400 nM. That is a double-digit micromolar value.

As to SSQVKCCHY, the Kd with HLA-B*15:01 (setting [5]) came to 347 nM.

Turning to IRWLGGILP, the concentration for half-maximal inhibition (IC50) with HLA-A*02:01 (setting [5]) is no less than 156000 nM; with HLA-A*24:02 [1] (setting [5]), 48100 nM.

LENVMWKQI: the dissociation constant Kd was 105 nM in the test with HLA-B*44:02 (setting [8]) and 157 nM with HLA-B*44:03 (setting [8]).

YGANYFLQI: the Kd in the test with HLA-B*15:01 (setting [5]) was found to be 1760 nM.

Take LFMALVAFL: in the test with HLA-A*24:02 [2], the Kd was 8200 nM.

For the sequence TSGKYFSTF, the Kd with HLA-B*15:01 (setting [9]) is 85.9 nM.

With NEHKSTWHY, the Kd in the test with HLA-B*44:02 (setting [6]) was 84.1 nM; in the test with HLA-B*44:03 (setting [6]), 173 nM.

As for RKKARSTPF, in the test with HLA-B*08:01 (setting [10]), the Kd stood at 413 nM.

Consider TTIRYQATG, for which, in the test with HLA-A*24:02 [1] (setting [7]), the 50% inhibitory concentration (IC50) was found to be 58300 nM.

In the case of IQTSGTTTIF, in the test with HLA-B*15:01 (setting [6]), the dissociation constant Kd came out at 5.3 nM.

On to AQKRTAAGIM, for which the Kd in the test with HLA-B*15:01 (setting [6]) turned out to be 25.6 nM.

As for DENPYKTWAY, the Kd with HLA-B*44:03 (setting [11]) worked out at 8.64 nM.

As to KPKGKVVDL, the Kd was 124 nM in the test with HLA-B*08:01 (setting [12]) and 43.4 nM with HLA-B*07:02 (setting [12]).

LESGAVKYL: the IC50 with HLA-A*02:01 (setting [7]) is no less than 222000 nM; in the test with HLA-A*24:02 [1] (setting [7]), no less than 128000 nM.

For the sequence RPTPTGTVMD, the Kd in the test with HLA-B*07:02 (setting [11]) was determined as 41.5 nM.

With VPLQWIASA, the Kd in the test with HLA-B*07:02 (source organism: Dengue virus 3 Sri Lanka/1266/2000) was 178 nM.

Take CPRKRKTVE: in the test with HLA-B*08:01 (setting [5]), the Kd is 581 nM.

For the sequence EMADITGSSP, the Kd with HLA-A*26:01 [3] (setting [12]) is no less than 46700 nM.

For LFLRRRCPL, in the test with HLA-B*08:01 (setting [9]), the Kd worked out at 0.125 nM.

As for FCIKILNPY, the Kd in the test with HLA-A*26:01 [3] (setting [6]) came to 7700 nM.

Turning to SYGEYQSYS, the IC50 with HLA-A*24:02 [1] (setting [7]) amounted to 52300 nM.

For LMCPDECPG, the Kd in the test with HLA-B*15:01 (setting [5]) amounted to 899 nM.

For the sequence RRLTSREVLL, the dissociation constant (Kd) with HLA-B*08:01 (setting [6]) came out at 5480 nM.

For NEVHTWTEQ, the Kd with HLA-B*44:03 (setting [6]) turned out to be 6680 nM.

With ETKQTGSASS, in the test with HLA-A*26:01 [3] (setting [10]), the Kd was no less than 25000 nM.

Turning to RTPQDNQLIY, the Kd came to 198 nM in the test with HLA-A*30:02 (setting [12]) and 919 nM in the test with HLA-A*01:01.

On to SFRRFVNKL, for which the Kd with HLA-B*08:01 (setting [9]) turned out to be 1380 nM.

Turning to LARVGRERL, the Kd with HLA-B*07:02 (setting [10]) is 298 nM.

As for APHHKILAKA, in the test with HLA-B*07:02 (setting [12]), the Kd turned out to be 407 nM.

On to SIILEFFLI, for which the results for the Kd with HLA-A*02:06 and in the test with HLA-A*24:02 [2] were 1.59 nM and 1250 nM, respectively.

As to NITDKINQI, the values for the IC50 with HLA-A*02:01 (setting [13]) and with HLA-A*24:02 [1] (setting [13]) were 43700 nM and 5960 nM, respectively.

As to AGGMLIACY, the Kd with HLA-A*30:02 (setting [6]) was 460 nM.

Take TEQMAPHHKI: the Kd with HLA-B*44:02 (setting [12]) stood at 41.7 nM.

With SPMPRHHSI, the Kd with HLA-B*08:01 (setting [5]) stood at 1110 nM.

NEMVLLTMK: in the test with HLA-B*44:02 (setting [6]), the Kd is 865 nM.

In the test with HLA-B*39:01, FHMSKPSDL showed a Kd of 7.7 nM.

For the sequence FGVDGEAGF, the Kd in the test with HLA-A*26:01 [4] is no less than 20000 nM.

For LGKCGSCVY, in the test with HLA-B*15:01 (setting [11]), the equilibrium dissociation constant (Kd) stood at 110 nM.

Sequence SGTETKITF returned an IC50 with HLA-A*24:02 [1] (setting [9]) of 11300 nM.
